{"source": "patent US20100086958A1", "about": "“NOVEL ENZYME” (priority 2008, published 2010)", "format_in_all_cases": "biochemical", "key": {"[1]": {"test": "Assay of enzyme activity (specific activity, U/mg)", "settings": "unit = μmol formate oxidized per min in the presence of co-factor; This work", "description": "The reaction was initiated by addition of NAD^+. The total volume of the reaction mixture was 1 mL. Specific activity (U/mg enzyme) was defined as number of μmols of product formed per mg enzyme per minute."}, "[2]": {"test": "Ketoreductase (KRED101)/BspFDH2 coupled reduction of ethyl 4-chloro-3-oxobutanoate", "description": "NADP^+ (10 mM, 1 mL) and BspFDH2 (17 mg/mL, 500 μL) were then added and the reaction shaken for 30 minutes at room temperature. After 30 minutes, KRED101 (40 mg/mL, 300 μL) was added. The reaction was monitored by GC-MS (Rt˜3.1 minutes). After 15 hr, the reaction mixture was extracted by DCM (3×1 mL) and combined organic phases were dried and the solvent removed to afford ethyl 4-chloro-3-hydroxybutanoate (6 above, >99% conversion based on GC chromatogram and HPLC). The GC-MS data were collected as example 1a. Chiral HPLC was performed on a Chiralcel OB packed column (0.46 cm I.D.×25 cm L; Daicel Chemical Industries, Japan) at 217 nm, with an eluent of n-hexane/2-propanol (9.3:0.7, v/v) at a flow rate of 1 mL/min. IR, vmax (thin film), 3600-3100 (br, O—H), 1731 (s, C═O) cm^−1. ^1H-NMR (400 MHz, Chloroform-d): δ ppm 1.29 (t, J=7.07 Hz, 3H), 2.55-2.70 (m, 2H), 3.62 (dd, J=5.31, 2.78 Hz, 2H) 4.19 (q, J=7.07 Hz, 2H), 4.23-4.30 (m, 1H). ^13C-NMR (400 MHz, Chloroform-d): δ ppm 14.11, 38.41, 48.11, 61.01, 67.92, 171.78. GC-MS (CI^+): m/z Calcd for C6H12O3Cl [M+H]+=167, C6H15O3Cl [M+NH4]^+=184; Found: 167 (M+H)^+, 184 (M+NH4)^+. HPLC-UV/Vis: (tR=7.9 minutes, tS=9.4 minutes), >99% e.e. of S.\nD-(S)-4-chloro-3-hydroxybutanoate ethyl ester is a key chiral pharmaceutical intermediate used in the enantioselective synthesis of, for example, slagenin B and C and HMG-CoA reductase inhibitors. […]"}, "[3]": {"test": "Cytochrome P450 BM3/BspFDH2 coupled oxidation of 1-propylbenzene with NADPH regeneration", "description": "(Li, Q.-S. et al., FEBS Letters 508, 249-252 (2001)) In this oxygen C—H reaction (FIG. 4a), one oxygen atom from an atmospheric O2 molecule is reduced to water by NADPH leaving the other ready for delivery to substrate. All P450's are NADPH-dependent. NADP^+ thus formed is then regenerated to NADPH by the action of BspFDH2 using formate. The overall atomic transformation is therefore the splitting of O2- with a hydride ion from formate using NADP^+ as a hydride shuttle.\n200 μL of 1-propylbenzene (1a above, 1M in DMSO), sodium formate (3 M, 2 mL) and bovine serum albumin (100 mg/mL, 1 mL) were added in potassium phosphate buffer (100 mM, pH 7.6, 2 mL) and the reaction mixture was shaken for 3 min. NADP^+ (10 mM, 1 mL) and BspFDH2 (17 mg/mL, 500 μL) were added and the reaction shaken for 30 minutes at room temperature. After 30 minutes, wild type cytochrome P450-BM3 (WT P450 BM3, 2.4 mg/mL, 300 μL) was added and the reaction shaken at room temperature. The reaction was monitored by GC-MS (Rt˜3.2 minutes). After 15 hr, the reaction mixture was extracted by DCM (3×1 mL) and the combined organic phase was dried and the solvent removed to afford 1-phenylpropan-1-ol (2a above, >99% conversion based on GC chromatogram). […]"}}, "data": [{"molecule": "Bsp383FDH: wild type FDH from Burkholderia sp 383, Seq ID No: 1, C-terminal His-tagged (protein, listed as Burkholderia sp., C-terminal His tag) MATVLCVLYPDPVDGYPPRYVRDAIPVITHYADGQTAPTPAGPPGFQPGELVGCVSGALGLRGYMEAHGHTLIVTSDKDSPDSEFERRLPEADVVISQPFWPAYLTAERIARAPKLKLALTAGIGSDHVDLDAAARARITVAEVTGSNSISVAEHVVMTTLALVRNYLPSHAIAQQGGWNIADCVSRSYDVEGMHFGTVGAGRIGLAVLRRLKPFGLQLHYTQRHRLDASIEQELGLTYHADAASLASAVDIVNLQIPLYPSTEHLFDAAMIARMKRGAYLINTARAKLVDRDAVVNALTSGHLAGYGGDVWFPQPAPADHPWRTMPFNGMTPHISGTSLSAQARYAAGTLEILQCWFDGKPIRNEYLIVDGGTLAGTGAQSYRLT", "values": [{"measurement": "activity with NADP^+", "setting": "[1]", "result": 8.64, "unit": "U/mg"}, {"measurement": "activity with NAD^+", "setting": "[1]", "result": 1.09, "unit": "U/mg"}, {"measurement": "reaction complete within", "setting": "[2]; coupled with KRED101", "result": "≤ 30", "unit": "min"}, {"measurement": "conversion of ethyl 4-chloro-3-oxobutanoate to ethyl 4-chloro-3-hydroxybutanoate", "setting": "[2]; coupled with KRED101, NADPH regeneration, GC and HPLC", "result": "> 99", "unit": "%"}, {"measurement": "reaction complete within", "setting": "[3]; coupled with cytochrome P450 BM-3", "result": "≤ 2", "unit": "h"}, {"measurement": "conversion of propylbenzene to 1-phenyl-1-propanol", "setting": "[3]; coupled with cytochrome P450 BM-3, NADPH regeneration from formate, GC", "result": "> 99", "unit": "%"}]}]}
